Experimental data taken from paper PMC4596688, “Structural determinants of nuclear export signal orientation in binding to exportin CRM1” (eLife, 2015).

Target: Full-length human CRM1 (HsCRM1) (UniProt O14980)
Test: GST pull-down, SDS/PAGE band intensity
Details: excess ScRanGTP; triplicate experiments; parent: est. 100; read off a plot

Chain of Full-length human CRM1 (HsCRM1) (O14980 whole entry): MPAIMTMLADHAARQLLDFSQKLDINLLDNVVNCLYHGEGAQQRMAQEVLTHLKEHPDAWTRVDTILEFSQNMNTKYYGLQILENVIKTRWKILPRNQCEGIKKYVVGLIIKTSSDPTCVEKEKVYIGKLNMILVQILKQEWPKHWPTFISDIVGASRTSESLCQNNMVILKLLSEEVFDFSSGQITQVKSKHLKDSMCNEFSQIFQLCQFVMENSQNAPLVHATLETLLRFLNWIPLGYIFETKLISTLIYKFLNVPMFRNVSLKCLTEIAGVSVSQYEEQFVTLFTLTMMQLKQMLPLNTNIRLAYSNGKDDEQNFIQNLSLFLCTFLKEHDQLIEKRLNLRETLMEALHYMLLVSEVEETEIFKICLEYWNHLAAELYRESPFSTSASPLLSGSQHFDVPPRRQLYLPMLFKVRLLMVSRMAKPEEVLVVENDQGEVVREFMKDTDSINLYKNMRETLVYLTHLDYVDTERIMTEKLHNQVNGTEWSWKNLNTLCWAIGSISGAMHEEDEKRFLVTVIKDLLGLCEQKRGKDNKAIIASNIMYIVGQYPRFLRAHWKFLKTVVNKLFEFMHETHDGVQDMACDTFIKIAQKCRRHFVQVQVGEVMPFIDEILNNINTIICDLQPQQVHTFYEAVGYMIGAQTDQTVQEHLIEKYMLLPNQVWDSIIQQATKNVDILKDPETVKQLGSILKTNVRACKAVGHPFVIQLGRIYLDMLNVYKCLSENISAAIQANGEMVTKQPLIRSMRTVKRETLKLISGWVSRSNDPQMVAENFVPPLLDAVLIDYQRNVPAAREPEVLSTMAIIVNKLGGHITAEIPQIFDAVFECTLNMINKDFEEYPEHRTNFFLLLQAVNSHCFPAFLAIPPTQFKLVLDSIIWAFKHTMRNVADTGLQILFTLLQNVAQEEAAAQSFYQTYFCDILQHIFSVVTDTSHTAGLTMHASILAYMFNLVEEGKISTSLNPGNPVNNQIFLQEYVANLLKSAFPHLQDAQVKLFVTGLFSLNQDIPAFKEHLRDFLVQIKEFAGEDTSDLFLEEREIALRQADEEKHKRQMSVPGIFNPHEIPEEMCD

| Substance | percent of parent [%] |
| --- | --- |
| GST-hRio2NES-R M11F | 53 |
| GST-hRio2NES-R F13W | 31 |
| GST-hRio2NES-R M11W | 80 |
| GST-hRio2NES-R M11I | 57 |
| GST-hRio2NES-R M11V | 17 |
| GST-hRio2NES-R F13Y | 17 |
| GST-hRio2NES-R F13A | 17 |
| GST-hRio2NES-R M11P | 15 |
| GST-hRio2NES-R M11A | 17 |
| GST-hRio2NES-R F13P | 33 |
| GST-hRio2NES-R M11Y | 10 |
| GST-hRio2NES-R F13M | 110 |

Target: Full-length human CRM1 (HsCRM1) (UniProt O14980)
Test: competition differential bleaching monitored with a microscale thermophoresis instrument; MBP-NESs serially diluted from 100 μM to 3 nM with 40 nM FITC-PKI^NES, mixed 1:1 with 300 nM HsCRM1 and 120 μM ScRan-GTP; TB buffer with 15% glycerol, 0.05% Tween-20; 1.5 hr, room temperature
Details: not given

| Substance | Kd [µM] |
| --- | --- |
| MBP-hRio2^NES (peptide) | 2.2 |
| MBP-hRio2^NES-R (peptide) | 2.4 |
| MBP-CPEB4^NES (peptide) | 0.59 |
| MBP-CPEB4^NES-R (peptide) | 0.78 |
